The record followed here is patent US6740739B1, “Substitutional variants of APO-2 ligand” (Genentech, Inc., priority 1998, dated 2004).

Type in all cases: cell-based, human
One assay relates to T lymphocytes. The assay is described as follows: Apoptosis by FACS in peripheral blood T cells. The conditions noted are these: Apo-2 ligand 3 μg/ml, 3 days, mean ±SE. As for the experimental part: Peripheral blood mononuclear cells (“PBMC&”) were isolated from the blood of human donors by Ficoll density gradient centrifugation using Lymphocyte Separation Medium (LSM®, Organon Teknika). An isolated population of T cells was prepared from the PBMC by removal of B cells through surface Ig binding to an anti-Ig column and removal of monocytes through Fc receptor binding to an Ig column (R & D Systems). An isolated population of B cells was prepared from the PBMC by complement-mediatedelimination of T cells reacted with the anti-CD3 antibody produced by the OKT3 myeloma (ATCC, CRL 8001) and of monocytes reacted with a monocyte-specific antibody produced by the 4F2C13 hybridoma (ATCC, HB 22). Additional monocyte removal was accomplished by adherence to plastic.
The freshly isolated peripheral blood B or T cells (1×10^6 cells/well) were cultured for 3 days in the presence of a media control or Apo-2 ligand (3 μg/ml, prepared as described in Example 3). For activation, B cells were treated simultaneously with lipopolysaccharide (“LPS”, 1 μg/ml), and T cells were treated with phorbol myristate acetate (“PMA”, 10 ng/ml) plus ionomycin (1 μg/ml) (Sigma). For interleukin-2 (“IL-2”) pretreatment, T cells were cultured for 3-5 days in the presence of IL-2 (50 U/ml) (Genzyme) before exposure to Apo-2 ligand. Apoptosis was determined using FACS analysis essentially as described above in Example 4. However, B cells were gated by anti-CD19/CD20 antibodies (Jackson Immunoresearch), and T cells were gated by anti-CD4/CD8 antibodies (Jackson lmmunoresearch). The results are shown in Table 2 below, representing means ±SE of independent experiments [B lymphocytes—9 experiments; T lymphocytes—8 experiments; T lymphocytes plus IL-2-5 experiments], in which 50,000 cells were analyzed per data point. Statistical analysis was performed using the student t-test. In Table 2, a=p<0.05 and b=p<0.02 relative respective control.
A general note: A flow cytometer gives signals particle by particle.

A further assay has as its system SK-N-AS. Nature of the assay: Cell viability by crystal violet staining. The conditions noted are these: SK-N-AS neuroblastoma, p53 ?; 24 h. As for the experimental part:
(§1) The following human tumor cell lines were assayed: A549 (lung carcinoma, ATCC CCL 185); HCT116 (colon carcinoma, ATCC CCL 247); SW480 (colon adenocarcinoma, ATCC CCL 228); MDA231 (breast adenocarcinoma, ATCC HTB 26); HeLa (cervical carcinoma, ATCC CCL 22); ME-180 (cervical carcinoma, ATCC HTB 33); T24 (bladder carcinoma. ATCC HTB 4); SK-N-AS (neuroblastoma, White et al., Proc. Natl. Acad. Sci., 92:5520-5524 (1995)). The cells were plated at 2.5×10^5 cells/ml in 96 well plates and incubated overnight. The cells were cultured in the presence of 2-fold dilutions of Apo-2 ligand (ranging from 100 ng/ml to 0.01 ng/ml). In some of the cultures, a chemotherapeuticagent was also added for 24 hours-cyclohexamide (“CHX”) (50 μg/ml; Sigma Chemicals), Doxorubicin (10-100 μg/ml; Pharmacia), or 5-FU (6 mg/ml; Roche).
(§2) After 24 hours of incubation, the cells were stained with 0.5% crystal-violetin 20% methanol. Cell viability was determined by eluting the dye from the stained cells with 0.1M sodium citrate (0.1M citric acid in 50% methanol), and measuring absorbance at 540 nm.

In another assay the test system is HeLa. Nature of the assay: Cell viability by crystal violet staining. As for the experimental part: as §1, §2

B1: Apo-2L: purified soluble His10-tagged human Apo-2 ligand, residues 114-281, from baculovirus-infected Sf9 cells (Example 3); used in Examples 4-14 (protein)
chain: MGHHHHHHHHHHSSGHIDDDDKHMVRERGPQRVAAHITGTRGRSNTLSSPNSKNEKALGRKINSWESSRSGHSFLSNLHLRNGELVIHEKGFYYIYSQTYFRFQEEIKENTKNDKQMVQYIYKYTSYPDPILLMKSARNSCWSKDAEYGLYSIYQGGIFELKENDRIFVSVTNEHLIDMDHEASFFGAFLVG
In the case of B1, the “% apoptolic cells” value with T lymphocytes (IL-2 pretreatment (50 U/ml, 3-5 days), control 13.7 ± 1.2, b=p<0.02) is reported as 34.5 ± 4.8^b %; with T lymphocytes (PMA/ionomycin, control 40.3 ± 4.4, a=p<0.05), 54.2 ± 3.3^a %; in the assay on T lymphocytes (treatment none, control 6.3 ± 0.6) it was 8.2 ± 0.8%. Also, the “Apo-2L SENSITIVITY” value is “+ (>35% death after 24 h with 100 ng/ml Apo-2)” in the assay with SK-N-AS and “+ (>35% death after 24 h with 100 ng/ml Apo-2)” in the assay on HeLa (HeLa cervical carcinoma, p53 mut, 24 h). In the assay on HeLa (HeLa, cyclohexamide 50 μg/ml, 24 hours), the “Apo-2L sensitivity ENHANCED BY CHX” value was “yes”.
